Target: the molecule itself
Assay: crystal structure

B1: E. coli LpxA UDP-N-acetylglucosamine acyltransferase (enzyme, UniProt P0A722 1-262, looked up)
chain: MIDKSAFVHPTAIVEEGASIGANAHIGPFCIVGPHVEIGEGTVLKSHVVVNGHTKIGRDNEIYQFASIGEVNQDLKYAGEPTRVEIGDRNRIRESVTIHRGTVQGGGLTKVGSDNLLMINAHIAHDCTVGNRCILANNATLAGHVSVDDFAIIGGMTAVHQFCIIGAHVMVGGCSGVAQDVPPYVIAQGNHATPFGVNIEGLKRRGFSREAITAIRNAYKLIYRSGKTLDEVKPEIAELAETYPEVKAFTDFFARSTRGLIR
  stoichiometry N: 3

Reference: article doi:10.1101/850305 (bioRxiv, 2019)
